Values of other authors, collected in publication PMC2981439.
pKd: −log10 of the molar value.

Target: quinone MADH (Paracoccus denitrificans) (UniProt P22619)
Sequence of UniProt P22619 (P22619 58-188, chain 1 of 2): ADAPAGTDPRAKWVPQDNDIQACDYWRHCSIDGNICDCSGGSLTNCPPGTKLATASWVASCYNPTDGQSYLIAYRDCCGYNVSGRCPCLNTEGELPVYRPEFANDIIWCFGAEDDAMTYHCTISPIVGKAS
Sequence of UniProt P22619 (P29894 29-417, chain 2 of 2, further chain): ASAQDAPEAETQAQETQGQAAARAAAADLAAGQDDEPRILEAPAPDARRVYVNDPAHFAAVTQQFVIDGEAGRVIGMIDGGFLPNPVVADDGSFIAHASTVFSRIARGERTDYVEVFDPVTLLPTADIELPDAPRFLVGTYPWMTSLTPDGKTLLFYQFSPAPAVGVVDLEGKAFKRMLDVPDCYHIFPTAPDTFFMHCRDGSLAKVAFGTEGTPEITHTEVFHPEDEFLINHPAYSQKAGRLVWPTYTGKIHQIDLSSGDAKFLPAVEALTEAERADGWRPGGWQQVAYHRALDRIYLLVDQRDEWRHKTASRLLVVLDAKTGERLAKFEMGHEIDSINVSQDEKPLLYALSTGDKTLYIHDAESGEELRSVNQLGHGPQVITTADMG

In the case of MauG (from UniProt Q51658), the pKd is listed as 5.00.
